B1: Cy3-labeled Sec9 (A442C) (domain or fragment)
chain: ARQQQEEDEAVDEIKQEIKFTKQSSVCSTRNTLKMAQDAERAGMNTLGMLGHQSEQLNNVEGNLDLMKVQNKVADEKVAELKKLNRSILAVHVSNPFNSKRRRREREEQLKNRKIEEKLMREQTSQQLSQSTQRIEGAMNANNNISEVRERYQRKNVLEKAKRYQFENDEEDDEMELEIDRNLDQIQQVSNRLKKMALTTGKELDSQQKRLNNIEESTDDLDINLHMNTNRLAGIR
B2: Sec9 (a.a. 416-651) (domain or fragment)
chain: B1 chain with C27A
B3: Habc domain-truncated Sso1 (a.a. 185-290) (domain or fragment)
chain: EAKTALAEVQARHQELLKLEKSMAELTQLFNDMEELVIEQQENVDVIDKNVEDAQLDVEQGVGHTDKAVKSARKARKNKIRCWLIVFAIIVVVVVVVVVPAVVKTR
B4: Snc2 WT (1-115) (natural protein)
chain: MSSSVPYDPYVPPEESNSGANPNSQNKTAALRQEIDDTVGIMRDNINKVAERGERLTSIEDKADNLAISAQGFKRGANRVRKQMWWKDLKMRMCLFLVVIILLVVIIVPIVVHFS

Test [1] concerns the target T1, Full length Sso1 WT (a.a. 1-290) (yeast (S. cerevisiae), UniProt P32867 1-290).
T1 sequence: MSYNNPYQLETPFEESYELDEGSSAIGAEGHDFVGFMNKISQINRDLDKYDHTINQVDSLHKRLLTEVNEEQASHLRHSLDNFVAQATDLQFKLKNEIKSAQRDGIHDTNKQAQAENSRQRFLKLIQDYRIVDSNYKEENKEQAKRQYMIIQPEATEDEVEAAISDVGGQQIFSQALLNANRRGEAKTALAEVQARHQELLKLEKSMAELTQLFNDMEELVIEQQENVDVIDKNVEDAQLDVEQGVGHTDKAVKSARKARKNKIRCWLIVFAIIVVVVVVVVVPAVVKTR
Put plainly: single-molecule pull-down.

In test [2] the target is T1, Full length Sso1 WT (a.a. 1-290). Description: single-vesicle docking.
For the test “Sec9 (a.a. 416-651)”, the target named is B2. Description: single-vesicle docking.
Test [3] addresses T2, binary Q-SNARE complex (Habc-truncated Sso1: Sec9) on vesicle membranes (yeast (S. cerevisiae), UniProt P32867;P40357).
T2 sequence 1: B3 chain
T2 sequence 2: B1 chain with C27A
Put plainly: single-vesicle docking.

In test [4] the target is T3, binary Q-SNARE complex (full-length Sso1: Sec9) on vesicle membranes (yeast (S. cerevisiae), UniProt P32867;P40357).
T3 sequence 1: T1 sequence
T3 sequence 2: B1 chain with C27A
Description: single-vesicle docking.

Where a chain is given by its changes, count along the chain named. Names may count otherwise.

For B1, in test [1], the binding result was “binds”. Consider B2, for which the binding result in test [2] is listed as “binds”. Turning to B3, in the test with Sec9 (a.a. 416-651), the binding result is “binds”.

With B4, the binding result in test [3] and in test [4] was “binds” in each case.

(Values after doi:10.1101/2022.01.16.476540 (bioRxiv, 2022).)
